Measurements taken from the supplement of paper PMC10567573.

B1: NP_009172.2 (parent)
chain: LPALFTDLYSQEITAEEAREALP
B2: ZNF8 (parent)
chain: KPYTCSVCGKSFSRTTCLFLHLRT

Variants of: B1
Assay: protein stability index of a GFP-peptide fusion (GPS, HEK-293T) (PSI 1-6); higher = more stable
Settings: c terminus: native

Protein stability index of substitutions, site by site:
A21: H 2.29; Y 2.3; K 2.46; C 2.46; Q 2.46; M 2.23; N 2.6; F 2.31; R 2.02; G 2.81; E 3.6; I 2.4; W 2.19; S 2.7; P 2.69; L 2.26; D 3.67; V 2.16; T 2.85
R19: P 2.93; G 2.96; V 2.8; T 2.9; K 2.79; S 2.89; I 2.45; A 2.75; Q 2.75; W 2.56; H 2.82; L 2.47; C 2.93; Y 2.53; D 3; N 2.71; M 2.59; F 2.68; E 2.81
A15: K 2.56; S 2.67; T 3.05; N 2.66; M 2.51; V 2.78; Q 2.84; P 3.05; L 2.53; R 2.36; W 2.68; Y 2.72
E16: H 2.75; P 3.16; C 2.51; S 2.86; N 2.81; L 2.73; M 2.58; D 2.75; A 2.76; I 2.99; R 2.68; W 2.48; T 2.62; F 2.89; V 2.48; K 2.97; Y 2.51; G 2.9; Q 2.64
E20: F 2.43; N 2.2; L 2.51; W 2.42; C 2.38; I 2.32; D 2.65; M 2.39; G 2.11; S 2.28; Y 3.08; V 2.6; K 2.42; P 2.86; A 2.41; R 1.98; H 2.27; Q 2.22
A18: W 2.67; V 2.71; I 2.57; D 3.24; E 2.83; G 2.95; Y 2.35; K 2.26; C 2.91; M 2.75; P 3.08; F 2.73; H 2.42; R 2.45; S 2.72; Q 2.86; N 2.75; L 2.51; T 3.04
E17: V 2.43; Y 2.32; G 2.21; N 2.5; K 2.18; F 2.38; C 2.24; D 2.71; L 2.16; R 1.87; M 2.22; P 2.73; Q 2.83; H 2.2; T 2.3; I 2.4; S 2.33; A 2.39; W 2.4
L22: N 4.7; F 3.49; A 3.54; R 4.15; Q 3.01; H 3.44; C 2.65; T 3.44; V 3.17; M 2.44; E 2.69; K 4.93; Y 3.49; I 2.37; S 3.59; G 2.88; D 4.62; P 3.63; W 2.67
P23: F 3.94; G 4.69; L 4.01; I 3.59; W 3; N 4.89; T 4.6; Y 3.49; Q 4.85; E 5; K 4.82; S 4.8; A 4.14; C 4.21; H 4.15; M 2.27; R 2.83; D 5.15; V 4.18

Variants of: B2
Assay: as above
Settings: c terminus: a fixed tail appended

Protein stability index: each site, then its substitutions
R23: L 1.65; Q 2.59; N 1.75; V 2; M 2.23; G 1.9; P 2.5
S11: F 1.72; A 2.08; Q 2.21; M 1.76; I 2.33; R 2.12; V 1.84; K 2.92; T 2.2; D 1.88
L20: C 2.63; K 2.32; T 2.65; M 1.74; F 2.14; G 2.1; D 2.11; A 2.66
C5: K 3.15; D 1.96; Y 2.21; I 3.17; W 2.06; P 2.38
T24: K 2.29; W 2.5; Y 1.68; S 1.89; P 2.19; Q 1.9; D 2.12; M 2.44
L18: F 1.95; K 2.9; P 2.32; N 2.49; S 1.89; H 1.96; A 2.19; R 1.67
R14: I 2.66; A 2.39; G 1.89; V 3.3; T 3.19; K 2.12; Q 3.25; S 3.13; N 3.12; M 1.68; E 2.7
G9: H 2.24; C 2.43; Y 1.97; L 2.25; Q 1.89
F12: E 1.77; I 3.27; P 1.75; M 2.45; R 1.62; V 1.73; C 1.54; Q 1.58; T 1.37
V7: G 2.3; R 1.68; D 1.71; L 2.87
H21: A 2.18; F 1.65; E 2.31; G 1.94; P 2.01; T 1.56
P2: G 3; T 2.19; S 2.72
T16: F 1.39; W 2.19; Q 2.73; E 2.25; I 2.44; S 2.17; A 2.16; N 2.73
K10: E 1.47; D 2.03; G 2.24; F 1.85; M 2.88; W 2.83; S 1.52; R 1.87; A 1.79; C 1.77
F19: R 2.35; V 1.9; E 2.57; S 2.03; M 2.35; A 1.98
C17: H 2.04; R 2.35; W 1.5; A 2.19; T 2.42; I 2.14; K 2.35; V 1.85
S13: V 2.15; F 1.82; T 1.86; G 1.62; L 1.48; K 2.06; C 2.71; A 2.43; R 2
Y3: Q 2.01; L 2.19; I 1.7; A 1.63; H 2.46; R 1.76; M 2.3; P 1.69
T4: P 1.86; H 1.8; N 1.67; V 1.69; D 2.75; W 1.62; K 2.04; F 1.9
K1: F 2.19; G 2.48; D 2.46; A 2.74; R 2.26; Y 2.24; P 1.91; C 2.08
L22: M 3.01; R 2.34; E 2.31
S6: L 1.93; T 1.73; R 2.14; Y 1.6; Q 2.13
C8: L 2.28; E 3.46; D 3.17; A 2.56; S 3.95
T15: W 2.1; K 2.39; Y 2.31; Q 2.61; G 1.54; L 2.29; S 2.4; D 2.9
